Among the data in patent US20180037623A1 are Egr-1-luciferase reporter activity, fold change values, retold here.

The target in the experiment is FGF23 receptor. Briefly: cell-based or functional assay.

sKlotho-FGF23-6×His fusion polypeptide: the Egr-1-luciferase reporter activity, fold change at about 0.6 nM purified fusion, with heparin (20 µg/ml) amounted to 2 fold change; the Egr-1-luciferase reporter activity, fold change at about 1.21 nM purified fusion, no heparin was determined as 1.2 fold change; the Egr-1-luciferase reporter activity, fold change at about 19.3 nM purified fusion, no heparin was found to be 2.4 fold change.
